Test results taken from patent publication US20190002563A1 (MacroGenics, published 2019).

T1: human B7-H3 on cells (human, UniProt Q5ZPR3 29-534)
T1 sequence (looked up): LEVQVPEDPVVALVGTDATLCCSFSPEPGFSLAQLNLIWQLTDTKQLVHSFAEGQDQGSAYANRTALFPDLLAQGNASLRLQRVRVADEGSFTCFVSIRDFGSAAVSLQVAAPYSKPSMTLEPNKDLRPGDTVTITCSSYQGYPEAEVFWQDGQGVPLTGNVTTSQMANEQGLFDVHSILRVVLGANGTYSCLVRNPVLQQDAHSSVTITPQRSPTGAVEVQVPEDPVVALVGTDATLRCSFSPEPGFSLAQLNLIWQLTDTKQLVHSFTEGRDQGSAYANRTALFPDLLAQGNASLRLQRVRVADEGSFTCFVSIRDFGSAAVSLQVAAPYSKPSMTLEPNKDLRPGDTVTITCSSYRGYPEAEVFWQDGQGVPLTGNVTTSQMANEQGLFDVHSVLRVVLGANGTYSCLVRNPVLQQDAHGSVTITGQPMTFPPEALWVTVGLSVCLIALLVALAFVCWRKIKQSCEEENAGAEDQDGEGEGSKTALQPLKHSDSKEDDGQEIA

T2: Cynomolgus B7-H3 (cynomolgus monkey)
T2 chain: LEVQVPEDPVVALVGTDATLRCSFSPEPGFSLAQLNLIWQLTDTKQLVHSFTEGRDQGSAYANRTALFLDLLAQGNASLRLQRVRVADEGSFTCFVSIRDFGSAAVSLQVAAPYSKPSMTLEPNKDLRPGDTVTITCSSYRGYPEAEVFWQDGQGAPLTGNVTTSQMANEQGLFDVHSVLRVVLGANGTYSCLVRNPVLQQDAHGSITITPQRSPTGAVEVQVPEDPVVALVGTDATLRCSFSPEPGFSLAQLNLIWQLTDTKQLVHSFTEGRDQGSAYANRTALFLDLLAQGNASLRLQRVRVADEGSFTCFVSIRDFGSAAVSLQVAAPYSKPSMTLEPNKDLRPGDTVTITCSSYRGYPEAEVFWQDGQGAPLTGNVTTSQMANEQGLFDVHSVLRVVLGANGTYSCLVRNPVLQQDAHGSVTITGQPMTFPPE

B1: DART-B (bispecific antibody)
chain 1: DIQMTQSPSSLSASVGDRVTITCRASQDISNYLNWYQQKPGKAPKLLIYYTSRLHSGVPSRFSGSGSGTDFTLTISSLQPEDIATYYCQQGNTLPPTFGGGTKLEIKGGGSGGGGEVQLVESGGGLVQPGGSLRLSCAASGFTFSTYAMNWVRQAPGKGLEWVGRIRSKYNNYATYYADSVKDRFTISRDDSKNSLYLQMNSLKTEDTAVYYCVRHGNFGNSYVSWFAYWGQGTLVTVSSGGCGGGEVAALEKEVAALEKEVAALEKEVAALEKGGGDKTHTCPPCPAPEAAGGPSVFLFPPKPKDTLMISRTPEVTCVVVDVSHEDPEVKFNWYVDGVEVHNAKTKPREEQYNSTYRVVSVLTVLHQDWLNGKEYKCKVSNKALPAPIEKTISKAKGQPREPQVYTLPPSREEMTKNQVSLWCLVKGFYPSDIAVEWESNGQPENNYKTTPPVLDSDGSFFLYSKLTVDKSRWQQGNVFSCSVMHEALHNHYTQKSLSLSPGK
chain 2: QAVVTQEPSLTVSPGGTVTLTCRSSTGAVTTSNYANWVQQKPGQAPRGLIGGTNKRAPWTPARFSGSLLGGKAALTITGAQAEDEADYYCALWYSNLWVFGGGTKLTVLGGGGSGGGGQVQLVQSGAEVKKPGASVKVSCKASGYTFTSYWMQWVRQAPGQGLEWMGTIYPGDGDTRYTQKFKGRVTITADKSTSTAYMELSSLRSEDTAVYYCARRGIPRLWYFDVWGQGTTVTVSSGGCGGGKVAALKEKVAALKEKVAALKEKVAALKE
chain 3: not shown
notes: Three-chain Fc diabody; also called B7-H3×CD3 bispecific monovalent Fc diabody
B2: DART-A (bispecific antibody)
chain 1: DIQLTQSPSFLSASVGDRVTITCKASQNVDTNVAWYQQKPGKAPKALIYSASYRYSGVPSRFSGSGSGTDFTLTISSLQPEDFATYYCQQYNNYPFTFGQGTKLEIKGGGSGGGGEVQLVESGGGLVQPGGSLRLSCAASGFTFSTYAMNWVRQAPGKGLEWVGRIRSKYNNYATYYADSVKDRFTISRDDSKNSLYLQMNSLKTEDTAVYYCVRHGNFGNSYVSWFAYWGQGTLVTVSSGGCGGGEVAALEKEVAALEKEVAALEKEVAALEKGGGDKTHTCPPCPAPEAAGGPSVFLFPPKPKDTLMISRTPEVTCVVVDVSHEDPEVKFNWYVDGVEVHNAKTKPREEQYNSTYRVVSVLTVLHQDWLNGKEYKCKVSNKALPAPIEKTISKAKGQPREPQVYTLPPSREEMTKNQVSLWCLVKGFYPSDIAVEWESNGQPENNYKTTPPVLDSDGSFFLYSKLTVDKSRWQQGNVFSCSVMHEALHNHYTQKSLSLSPGK
chain 2: QAVVTQEPSLTVSPGGTVTLTCRSSTGAVTTSNYANWVQQKPGQAPRGLIGGTNKRAPWTPARFSGSLLGGKAALTITGAQAEDEADYYCALWYSNLWVFGGGTKLTVLGGGGSGGGGEVQLVESGGGLVQPGGSLRLSCAASGFTFSSFGMHWVRQAPGKGLEWVAYISSDSSAIYYADTVKGRFTISRDNAKNSLYLQMNSLRDEDTAVYYCGRGRENIYYGSRLDYWGQGTTVTVSSGGCGGGKVAALKEKVAALKEKVAALKEKVAALKE
chain 3: not shown
notes: Three-chain Fc diabody, one B7-H3 site and one CD3 site; chains are disulfide bonded; also called B7-H3×CD3 bispecific monovalent Fc diabody

Legend:
[1] = target: T1, human B7-H3 on cells; test: cell-based or functional assay
[2] = target: T2, Cynomolgus B7-H3; test: SPR (BIAcore)
[3] = target: T1, human B7-H3 on cells; test: cell-based or functional assay; remark: listed apart in the source
[4] = target: T1, human B7-H3 on cells; test: cell-based or functional assay; remark: listed apart in the source

| Binder | potency of redirected cell killing against DART-A (target cell lines including A498, THP-1 and DU145) [1] [fold] | Kd [2] [nM] | koff [2] [s⁻¹] | kon [2] [M⁻¹ s⁻¹] | EC50 of redirected killing, A375 target cells, E:T 1:1 (LDH assay) [3] [µg/mL] | EC50 of redirected killing, A375 target cells, E:T 5:1 (LDH assay) [3] [µg/mL] | EC50 of redirected killing, A375 target cells, E:T 10:1 (LDH assay) [3] [µg/mL] | EC50 of redirected killing, A498 target cells, E:T 1:1 (LDH assay) [3] [µg/mL] | EC50 of redirected killing, A498 target cells, E:T 5:1 (LDH assay) [3] [µg/mL] | EC50 of redirected killing, A498 target cells, E:T 10:1 (LDH assay) [3] [µg/mL] | EC50 of redirected killing, 22Rv1 target cells, human T cells, E:T 5:1 [4] [µg/mL] | EC50 of redirected killing, A375 target cells, human T cells, E:T 5:1 [4] [µg/mL] | EC50 of redirected killing, A498 target cells, human T cells, E:T 5:1 [4] [µg/mL] | EC50 of redirected killing, BxPC-3 target cells, human T cells, E:T 5:1 [4] [µg/mL] | EC50 of redirected killing, DU145 target cells, human T cells, E:T 5:1 [4] [µg/mL] | EC50 of redirected killing, Detroit562 target cells, human T cells, E:T 5:1 [4] [µg/mL] | EC50 of redirected killing, JIMT-1/Luc target cells, human T cells, E:T 5:1 [4] [µg/mL] | EC50 of redirected killing, SKMES-1 target cells, human T cells, E:T 5:1 [4] [µg/mL] | EC50 of redirected killing, U87 target cells, human T cells, E:T 5:1 [4] [µg/mL] |
| --- | --- | --- | --- | --- | --- | --- | --- | --- | --- | --- | --- | --- | --- | --- | --- | --- | --- | --- | --- |
| B1 | ~6 |  |  |  |  |  |  |  |  |  |  |  |  |  |  |  |  |  |  |
| B2 |  | 30.2 | 0.0051 | 170000 | 0.352 | 0.243 | 0.166 | 0.129 | 0.0425 | 0.0272 | 0.212 | 0.097 | 0.064 | 0.196 | 0.084 | 1.28 | 0.047 | 0.319 | 0.099 |
